# Measured values: article PMC5996960 (Molecular Biology of the Cell, 2018)
# T1: His6-tagged yeast cyclin C (S. cerevisiae, UniProt P47821 1-323)
# T1 sequence (looked up): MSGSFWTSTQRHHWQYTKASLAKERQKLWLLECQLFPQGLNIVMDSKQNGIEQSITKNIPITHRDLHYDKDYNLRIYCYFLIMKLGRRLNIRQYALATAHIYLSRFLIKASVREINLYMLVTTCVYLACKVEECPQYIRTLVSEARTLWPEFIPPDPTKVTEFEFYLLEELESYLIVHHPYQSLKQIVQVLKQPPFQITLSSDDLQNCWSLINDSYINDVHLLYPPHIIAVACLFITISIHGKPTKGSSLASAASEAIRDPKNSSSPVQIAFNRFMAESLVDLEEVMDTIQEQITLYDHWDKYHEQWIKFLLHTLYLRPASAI
# B1: GST-Med13^742-844 (domain or fragment, S. cerevisiae, UniProt P38931 742-844, looked up)
# chain: DIPQTESPLKTVDSSIQPIESNIKMTLEDNNVTSNPSEFTPNMVNSEISNLPKDKSGIPEFTPADPNLSFESSSSLPFLLRHMPLASIPDIFITPTPVVTISE
# Target: T1, His6-tagged yeast cyclin C
# Experiment: pull-down
binder,measurement,value
B1,binding result,binds
